This is an account of results in US20040077572.

The series relates to Sleeping Beauty transposase SB10 (synthetic (reconstructed salmonid)). The experiment in a line: cell_activity.

The substance Lo(AAG) transposon showed an activity (relative excision) of 11%.
As to RoRi-RiRo transposon, the activity (relative excision, transposition 29%) is 43%.
Consider pT2/SV40Neo transposon, for which, for the setting “just under four-fold over pT/SV40neo”, the activity was 4 fold.
In the case of “TANNNNCAGTTGAAGTCGGAAGTTTACATACACTTAAG (double strand) [TAN4Lo transposon]”, under “relative transposition in HeLa”, the activity is 30%.
LoLo-RoRo transposon gave an activity (transposition reduced nearly 85%) of 15%.
As to LoLo-RiRo transposon, the activity (relative excision, transposition 45%) came to 46%.
LoLi-LiLo transposon showed an activity (relative excision, transposition 101%) of 95%.
